Test results taken from the supplement of paper PMC11246515.
± gives the standard deviation of the averaged measurements.

Test: total protein half-life in vivo (active degradation + dilution); higher = more stable protein
[1] = E. coli NCM3722 delta-clpP delta-lon delta-hslV, growth: N-lim chemostat, doubling time 6 h
[2] = E. coli NCM3722 delta-clpP, growth: N-lim chemostat, doubling time 6 h
[3] = E. coli NCM3722 delta-hslV, growth: N-lim chemostat, doubling time 6 h
[4] = E. coli NCM3722 delta-lon, growth: N-lim chemostat, doubling time 6 h
[5] = E. coli NCM3722 delta-smpB, growth: N-lim chemostat, doubling time 6 h
[6] = wild type E. coli NCM3722, growth: C-lim chemostat, doubling time 3 h
[7] = wild type E. coli NCM3722, growth: C-lim chemostat, doubling time 6 h
[8] = wild type E. coli NCM3722, growth: C-lim chemostat, doubling time 12 h
[9] = wild type E. coli NCM3722, growth: N-lim chemostat, doubling time 6 h
[10] = wild type E. coli NCM3722, growth: N-lim chemostat, doubling time 12 h
[11] = wild type E. coli NCM3722, growth: P-lim chemostat, doubling time 6 h
[12] = wild type E. coli NCM3722, growth: P-lim chemostat, doubling time 12 h

MASSGTTSTRKRFTGAEFIVHFLEQQGIKIVTGIPGGSILPVYDALSQSTQIRHILARHEQGAGFIAQGMARTDGKPAVCMACSGPGATNLVTAIADARLDSIPLICITGQVPASMIGTDAFQEVDTYGISIPITKHNYLVRHIEELPQVMSDAFRIAQSGRPGPVWIDIPKDVQTAVFEIETQPAMAEKAAAPAFSEESIRDAAAMINAAKRPVLYLGGGVINAPARVRELAEKAQLPTTMTLMALGMLPKAHPLSLGMLGMHGVRSTNYILQEADLLIVLGARFDDRAIGKTEQFCPNAKIIHVDIDRAELGKIKQPHVAIQADVDDVLAQLIPLVEAQPRAEWHQLVADLQREFPCPIPKACDPLSHYGLINAVAACVDDNAIITTDVGQHQMWTAQAYPLNRPRQWLTSGGLGTMGFGLPAAIGAALANPDRKVLCFSGDGSLMMNIQEMATASENQLDVKIILMNNEALGLVHQQQSLFYEQGVFAATYPGKINFMQIAAGFGLETCDLNNEADPQASLQEIINRPGPALIHVRIDAEEKVYPMVPPGAANTEMVGE
total protein half-life in vivo [1]: 2.91 ± 0.088 h | total protein half-life in vivo [2]: 1.25 ± 0.025 h | total protein half-life in vivo [3]: 1.28 ± 0.21 h | total protein half-life in vivo [4]: 1.6 ± 0.46 h | total protein half-life in vivo [5]: 1.43 ± 0.086 h | total protein half-life in vivo [6]: 2.4 ± 0.39 h | total protein half-life in vivo [7]: 2.86 ± 0.38 h | total protein half-life in vivo [8]: 4.64 ± 1.5 h | total protein half-life in vivo [9]: 1.4 ± 0.11 h | total protein half-life in vivo [10]: 2.49 h | total protein half-life in vivo [11]: 4.5 h | total protein half-life in vivo [12]: 8.65 ± 1.8 h

MSKIRVLSVDDSALMRQIMTEIINSHSDMEMVATAPDPLVARDLIKKFNPDVLTLDVEMPRMDGLDFLEKLMRLRPMPVVMVSSLTGKGSEVTLRALELGAIDFVTKPQLGIREGMLAYNEMIAEKVRTAAKASLAAHKPLSAPTTLKAGPLLSSEKLIAIGASTGGTEAIRHVLQPLPLSSPALLITQHMPPGFTRSFADRLNKLCQIGVKEAEDGERVLPGHAYIAPGDRHMELSRSGANYQIKIHDGPAVNRHRPSVDVLFHSVAKQAGRNAVGVILTGMGNDGAAGMLAMRQAGAWTLAQNEASCVVFGMPREAINMGGVCEVVDLSQVSQQMLAKISAGQAIRI
total protein half-life in vivo [1]: 4.85 h | total protein half-life in vivo [6]: 2.09 ± 0.19 h | total protein half-life in vivo [7]: 3.21 ± 0.2 h | total protein half-life in vivo [8]: 5.6 ± 0.28 h | total protein half-life in vivo [12]: 9.95 h

MQIVMFDRQSIFIHGMKISLQQRIPGVSIQGASQADELWQKLESYPEALVMLDGDQDGEFCYWLLQKTVVQFPEVKVLITATDCNKRWLQEVIHFNVLAIVPRDSTVETFALAVNSAAMGMMFLPGDWRTTPEKDIKDLKSLSARQREILTMLAAGESNKEIGRALNISTGTVKAHLESLYRRLEVKNRTQAAMMLNISS
total protein half-life in vivo [1]: 4.46 h

MATYYSNDFRAGLKIMLDGEPYAVEASEFVKPGKGQAFARVKLRRLLTGTRVEKTFKSTDSAEGADVVDMNLTYLYNDGEFWHFMNNETFEQLSADAKAIGDNAKWLLDQAECIVTLWNGQPISVTPPNFVELEIVDTDPGLKGDTAGTGGKPATLSTGAVVKVPLFVQIGEVIKVDTRSGEYVSRVK [P0A6N4]
total protein half-life in vivo [2]: 4.46 ± 0.85 h | total protein half-life in vivo [3]: 4.41 ± 0.21 h | total protein half-life in vivo [4]: 5.35 ± 0.54 h | total protein half-life in vivo [5]: 4.285 ± 0.022 h | total protein half-life in vivo [6]: 2.91 ± 0.13 h | total protein half-life in vivo [7]: 4.775 ± 0.023 h | total protein half-life in vivo [8]: 8.29 ± 0.57 h | total protein half-life in vivo [9]: 4.24 ± 0.074 h | total protein half-life in vivo [10]: 5.76 ± 0.19 h | total protein half-life in vivo [11]: 4.32 ± 0.1 h | total protein half-life in vivo [12]: 8.07 ± 0.47 h

MIEWQDLHHSELSVSQLYALLQLRCAVFVVEQNCPYQDIDGDDLTGDNRHILGWKNDELVAYARILKSDDDLEPVVIGRVIVSEALRGEKVGQQLMSKTLETCTHHWPDKPVYLGAQAHLQNFYQSFGFIPVTEVYEEDGIPHIGMAREVIQA [P0AEH3]
total protein half-life in vivo [1]: 4.51 ± 0.43 h | total protein half-life in vivo [3]: 3.93 ± 1.4 h | total protein half-life in vivo [4]: 3.58 ± 0.13 h | total protein half-life in vivo [5]: 2.23 ± 0.14 h | total protein half-life in vivo [6]: 2.35 ± 0.064 h | total protein half-life in vivo [7]: 4.3 ± 0.27 h | total protein half-life in vivo [8]: 7.04 ± 0.82 h | total protein half-life in vivo [9]: 2.68 ± 0.086 h | total protein half-life in vivo [10]: 3.85 ± 0.064 h | total protein half-life in vivo [11]: 4.54 ± 0.38 h | total protein half-life in vivo [12]: 9.98 ± 1.5 h

MIKFSATLLATLIAASVNAATVDLRIMETTDLHSNMMDFDYYKDTATEKFGLVRTASLINDARNEVKNSVLVDNGDLIQGSPLADYMSAKGLKAGDIHPVYKALNTLDYTVGTLGNHEFNYGLDYLKNALAGAKFPYVNANVIDARTKQPMFTPYLIKDTEVVDKDGKKQTLKIGYIGVVPPQIMGWDKANLSGKVTVNDITETVRKYVPEMREKGADVVVVLAHSGLSADPYKVMAENSVYYLSEIPGVNAIMFGHAHAVFPGKDFADIEGADIAKGTLNGVPAVMPGMWGDHLGVVDLQLSNDSGKWQVTQAKAEARPIYDIANKKSLAAEDSKLVETLKADHDATRQFVSKPIGKSADNMYSYLALVQDDPTVQVVNNAQKAYVEHYIQGDPDLAKLPVLSAAAPFKVGGRKNDPASYVEVEKGQLTFRNAADLYLYPNTLIVVKASGKEVKEWLECSAGQFNQIDPNSTKPQSLINWDGFRTYNFDVIDGVNYQIDVTQPARYDGECQMINANAERIKNLTFNGKPIDPNAMFLVATNNYRAYGGKFAGTGDSHIAFASPDENRSVLAAWIADESKRAGEIHPAADNNWRLAPIAGDKKLDIRFETSPSDKAAAFIKEKGQYPMNKVATDDIGFAIYQVDLSK
total protein half-life in vivo [1]: 6.84 ± 0.98 h | total protein half-life in vivo [2]: 6.56 ± 1.5 h | total protein half-life in vivo [3]: 6.23 ± 0.19 h | total protein half-life in vivo [4]: 7.14 ± 0.34 h | total protein half-life in vivo [5]: 5.91 ± 0.18 h | total protein half-life in vivo [6]: 3.34 ± 0.07 h | total protein half-life in vivo [7]: 5.93 ± 0.14 h | total protein half-life in vivo [8]: 12.9 ± 2.1 h | total protein half-life in vivo [9]: 6.327 ± 0.037 h | total protein half-life in vivo [10]: 12.2 ± 1.1 h | total protein half-life in vivo [11]: 5.23 ± 0.31 h | total protein half-life in vivo [12]: 11.212 ± 0.0065 h

MANPEQLEEQREETRLIIEELLEDGSDPDALYTIEHHLSADDLETLEKAAVEAFKLGYEVTDPEELEVEDGDIVICCDILSECALNADLIDAQVEQLMTLAEKFDVEYDGWGTYFEDPNGEDGDDEDFVDEDDDGVRH [P0AF90]
total protein half-life in vivo [1]: 5.62 ± 0.39 h | total protein half-life in vivo [2]: 4 ± 0.52 h | total protein half-life in vivo [3]: 3.94 ± 0.18 h | total protein half-life in vivo [4]: 5.36 ± 0.26 h | total protein half-life in vivo [5]: 3.73 ± 0.12 h | total protein half-life in vivo [6]: 2.08 h | total protein half-life in vivo [7]: 5.51 ± 1.6 h | total protein half-life in vivo [8]: 8.63 ± 2.2 h | total protein half-life in vivo [9]: 4.14 h | total protein half-life in vivo [10]: 7.72 ± 1.9 h | total protein half-life in vivo [11]: 2.61 ± 0.039 h | total protein half-life in vivo [12]: 6.57 ± 0.075 h
